In this assay the target is T1, PCSK9 (Proprotein convertase subtilisin/kexin type 9) antigen, Alexa 647-conjugated (Pan troglodytes (Chimpanzee); Homo …, UniProt A8T644 31-152; Q8NBP7 153-692, Alexa 647-conjugated).
T1 construct: also called fluorophore-conjugated PCSK9 antigen; fluorophore-labeled PCSK-9 antigen
The assay can be described thus: flow cytometry / FACS of Fab-displaying Pichia pastoris labeled with Alexa 647-conjugated PCSK9. (Flow cytometry measures light scatter and fluorescence of single cells or particles in a stream.)

1 molecule from US20150211000A1 (GLYCOFI, published 2015) can be followed below.

T1 sequence (A8T644 31-152 limits assumed, chain 1 of 2): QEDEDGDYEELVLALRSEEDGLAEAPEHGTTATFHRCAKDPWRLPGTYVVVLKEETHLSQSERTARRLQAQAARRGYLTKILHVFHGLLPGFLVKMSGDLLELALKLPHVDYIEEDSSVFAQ
T1 sequence (A8T644 other isoform, or with tags, fused parts or gaps limits assumed, chain 2 of 2): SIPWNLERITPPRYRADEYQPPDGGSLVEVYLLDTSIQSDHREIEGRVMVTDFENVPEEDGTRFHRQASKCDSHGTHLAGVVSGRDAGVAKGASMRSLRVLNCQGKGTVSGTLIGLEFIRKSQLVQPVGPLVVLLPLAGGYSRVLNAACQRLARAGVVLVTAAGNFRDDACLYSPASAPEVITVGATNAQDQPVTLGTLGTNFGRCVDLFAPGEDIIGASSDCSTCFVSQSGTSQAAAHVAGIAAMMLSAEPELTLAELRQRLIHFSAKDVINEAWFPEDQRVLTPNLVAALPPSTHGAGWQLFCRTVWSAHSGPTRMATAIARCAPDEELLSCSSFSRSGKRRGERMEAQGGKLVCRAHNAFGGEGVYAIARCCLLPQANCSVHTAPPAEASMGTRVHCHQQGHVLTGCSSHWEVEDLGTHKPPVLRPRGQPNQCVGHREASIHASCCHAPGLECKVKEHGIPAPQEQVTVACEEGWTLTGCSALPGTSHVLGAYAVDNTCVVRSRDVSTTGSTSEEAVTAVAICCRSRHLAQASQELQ

B1: anti-CD20 (Genmab) Fab fragment, heavy chain fused to GR1 coiled coil peptide, displayed on Pichia pastoris strain YGLY7761 (Fab, V domains shown)
VH: AVQLVESGGGLVQPGRSLRLSCAASGFTFGDYTMHWVRQAPGKGLEWVSGISWNSGSIGYADSVKGRFTISRDNAKNSLYLQMNSLRAEDTALYYCTKDNQYGSGSTYGLGVWGQGTLVTVSS
VL: EIVLTQSPATLSLSPGERATLSCRASQSVSSYLAWYQQKPGQAPRLLIYDASNRATGIPARFSGSGSGTDFTLTISSLEPEDFAVYYCQQRSNWPLTFGGGTKVEIKR
notes: also called α-CD20; anti-CD20 Fab fragment Genmab; not shown: linker and tags of vector pGLY3958 between CH1 and GR1
With B1, the binding result is “no binding”.
